Consider one molecule from PMC6289461, “Mek1 coordinates meiotic progression with DNA break repair by directly phosphorylating and inhibiting the yeast pachytene exit regulator Ndt80”.

The data set concerns the target T1, 6xHis-Ndt80 WT DBD (Saccharomyces cerevisiae, UniProt P38830 1-340).
T1 sequence: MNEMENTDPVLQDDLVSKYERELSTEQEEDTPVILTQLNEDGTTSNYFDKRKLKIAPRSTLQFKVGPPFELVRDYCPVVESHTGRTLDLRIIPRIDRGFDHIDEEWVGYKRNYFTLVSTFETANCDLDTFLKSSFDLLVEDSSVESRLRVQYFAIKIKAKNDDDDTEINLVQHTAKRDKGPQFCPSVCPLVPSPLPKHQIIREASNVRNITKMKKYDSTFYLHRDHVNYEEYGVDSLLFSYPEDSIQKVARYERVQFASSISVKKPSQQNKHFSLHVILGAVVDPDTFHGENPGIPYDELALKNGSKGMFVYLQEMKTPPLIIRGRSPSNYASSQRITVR
Nature of the data set: EMSA; 50 nM DBD, 50 nM duplex; highest non-specific binding of the three DBDs; EMSA: 10 mM Tris-HCl pH 7.5, 40 mM NaCl, 4 mM MgCl2, 6% glycerol, 10 mg/ml BSA, 10 ug/ml sonicated salmon sperm DNA; 20 ul, room temperature, 30 min; 6% PAGE in 0.5X TBE. The note with it: protein: recombinant; tags: N-terminal 6xHis (pET-28a); label: 5' Cy5 on strand 1; blunt.

B1: Cy5-Scr duplex (dsDNA)
DNA 1: ATTGACGCGGCTTCATCTCACGTATCATT
DNA 2: AATGATACGTGAGATGAAGCCGCGTCAAT
B1: the binding result is reported as “binds”.
